# According to patent US20200308257A1 (VISTERRA, published 2020):
# B1: VIS410 (antibody, V domains shown)
# VH: QVQLLETGGGLVKPGQSLKLSCAASGFTFTSYAMHWVRQPPGKGLEWVAVVSYDGNYKYYADSVQGRFTISRDNSKNTLYLQMNSLRAEDTAVYYCAKDSRLRSLLYFEWLSQGYFNPWGQGTTLTVSS
# VL: DIQMTQSPSSLSASVGDRVTITCRSSQSITFDYKNYLAWYQQKPGKAPKLLIYWGSYLESGVPSRFSGSGSGTDFTLTISSLQPEDFATYYCQQHYRTPPSFGQGTKVEIK
# Columns and labels:
# Experiment in all cases: cell-based or functional assay
# [1] = biological target: T1, hemagglutinin (HA) of influenza A/PR/8/1934 (H1N1) (influenza A virus (H1N1), UniProt P03452 18-565)
# [2] = biological target: hemagglutinin (HA) of influenza A/South Africa/81130/2017 (H3N2) (influenza A virus (H3N2))
# [3] = biological target: hemagglutinin (HA) of influenza A/South Africa/80811/2017 (H1N1) (influenza A virus (H1N1))
# [4] = biological target: hemagglutinin (HA) of influenza A/South Africa/80837/2017 (H1N1) (influenza A virus (H1N1))
# [5] = biological target: hemagglutinin (HA) of influenza A/South Africa/80860/2017 (H1N1) (influenza A virus (H1N1))
# [6] = biological target: hemagglutinin (HA) of influenza A/South Africa/80714/2017 (H3N2) (influenza A virus (H3N2))
# [7] = biological target: hemagglutinin (HA) of influenza A/South Africa/80839/2017 (H3N2) (influenza A virus (H3N2))
# [8] = biological target: T1, hemagglutinin (HA) of influenza …; remark: listed apart in the source
# [9] = biological target: hemagglutinin (HA) of influenza A/South Africa/0808006/2018 (H1N1) (influenza A virus (H1N1))
# [10] = biological target: hemagglutinin (HA) of influenza A/South Africa/80521/2017 (H3N2) (influenza A virus (H3N2))
# [11] = biological target: hemagglutinin (HA) of influenza A/South Africa/81313/2017 (H3N2) (influenza A virus (H3N2))
# [12] = biological target: hemagglutinin (HA) of influenza A/South Africa/80316/2017 (H3N2) (influenza A virus (H3N2))
# [13] = biological target: hemagglutinin (HA) of influenza A/South Africa/80308/2017 (H3N2) (influenza A virus (H3N2))
# [14] = biological target: hemagglutinin (HA) of influenza A/South Africa/80836/2017 (H1N1) (influenza A virus (H1N1))
# [15] = biological target: hemagglutinin (HA) of influenza A/South Africa/80919/2017 (H3N2) (influenza A virus (H3N2))
# T1 sequence (P03452 18-565 limits assumed): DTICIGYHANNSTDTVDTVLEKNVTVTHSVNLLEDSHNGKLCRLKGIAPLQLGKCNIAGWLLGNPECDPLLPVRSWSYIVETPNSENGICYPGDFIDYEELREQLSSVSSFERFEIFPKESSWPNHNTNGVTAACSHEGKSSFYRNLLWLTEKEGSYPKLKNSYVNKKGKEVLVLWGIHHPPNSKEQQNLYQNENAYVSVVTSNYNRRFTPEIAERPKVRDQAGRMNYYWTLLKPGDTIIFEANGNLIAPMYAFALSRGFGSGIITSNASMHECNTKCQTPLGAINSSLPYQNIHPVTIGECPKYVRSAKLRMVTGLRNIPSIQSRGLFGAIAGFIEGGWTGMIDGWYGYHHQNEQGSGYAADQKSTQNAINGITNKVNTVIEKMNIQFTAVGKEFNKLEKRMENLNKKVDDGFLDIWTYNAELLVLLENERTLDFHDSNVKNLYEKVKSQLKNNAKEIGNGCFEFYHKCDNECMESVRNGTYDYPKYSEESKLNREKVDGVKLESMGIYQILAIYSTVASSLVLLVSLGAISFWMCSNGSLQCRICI
binder,measurement,setting,value
B1,"EC50, antiviral activity against wild-type A/PR/8/1934 (H1N1) virus",[1],7.4 nM
same,"IC50, phenotypic IC50 assay (virus infection of MDCK cells)",[2],1 µg/mL
same,"IC50, phenotypic IC50 assay (virus infection of MDCK cells)",[3],0.38 µg/mL
same,"IC50, phenotypic IC50 assay (virus infection of MDCK cells)",[4],0.25 µg/mL
same,"IC50, phenotypic IC50 assay (virus infection of MDCK cells)",[5],0.26 µg/mL
same,"IC50, phenotypic IC50 assay (virus infection of MDCK cells)",[6],0.13 µg/mL
same,"IC50, phenotypic IC50 assay (virus infection of MDCK cells)",[7],0.41 µg/mL
same,"IC50 (µg/mL), baloxavir-sensitive A/Puerto Rico/8/1934_H1N1 WT virus",[8],0.3 µg/mL
same,"IC50, phenotypic IC50 assay (virus infection of MDCK cells)",[9],0.42 µg/mL
same,"IC50, phenotypic IC50 assay (virus infection of MDCK cells)",[10],1.09 µg/mL
same,"IC50, phenotypic IC50 assay (virus infection of MDCK cells)",[11],1.38 µg/mL
same,"IC50, phenotypic IC50 assay (virus infection of MDCK cells)",[12],0.57 µg/mL
same,"IC50, phenotypic IC50 assay (virus infection of MDCK cells)",[13],0.91 µg/mL
same,"IC50, phenotypic IC50 assay (virus infection of MDCK cells)",[14],0.73 µg/mL
same,"IC50, phenotypic IC50 assay (virus infection of MDCK cells)",[15],2.55 µg/mL
